Experimental data: patent publication US20250297002A1 (SHANGHAI SINOBAY BIOTECHNOLOGY, published 2025)

B1: Hu004-101-αCD3-BITE (bispecific antibody)
chain: EVQLVESGGGLVQPGGSLRLSCAASGFTFSGYGMSWVRQAPGKGLEWVATITSGGTYTYYPDSVKGRFTISRDNAKNSLYLQMNSLRAEDTAVYYCARSLAGNAMDYWGQGTLVTVSSGGGGSGGGGSGGGGSQVQLVQSGAEVKKPGASVKVSCKASGYTFTRYTMHWVRQAPGQGLEWMGYINPSRGYTNYNQKFKDRVTITADKSTSTAYMELSSLRSEDTAVYYCARYYDDHYCLDYWGQGTTVTVSSGGGGSGGGGSGGGGSEIVLTQSPATLSLSPGERATLSCSASSSVSYMNWYQQKPGKAPKRLIYDTSKLASGVPSRFSGSGSGTDFTLTINSLEAEDAATYYCQQWSSNPFTFGQGTKVEIKGGGGSGGGGSGGGGSDIQMTQSPSTLSASVGDRVTITCRASQSISNWLAWYQQKPGEAPKLLIYKASNLESGVPSRFSGSGSGTEFTLTISSLQPDDFATYYCQQFGTFGQGTKVEIK
B2: Hu004-68-αCD3-BITE (bispecific antibody)
chain: EVQLVESGGGLVQPGGSLRLSCAASGFTFSGYGMSWVRQAPGKGLEWVATITSGGTYTYYPDSVKGRFTISRDNAKNSLYLQMNSLRAEDTAVYYCARSLAGNAMDYWGQGTLVTVSSGGGGSGGGGSGGGGSQVQLVQSGAEVKKPGASVKVSCKASGYTFTRYTMHWVRQAPGQGLEWMGYINPSRGYTNYNQKFKDRVTITADKSTSTAYMELSSLRSEDTAVYYCARYYDDHYCLDYWGQGTTVTVSSGGGGSGGGGSGGGGSEIVLTQSPATLSLSPGERATLSCSASSSVSYMNWYQQKPGKAPKRLIYDTSKLASGVPSRFSGSGSGTDFTLTINSLEAEDAATYYCQQWSSNPFTFGQGTKVEIKGGGGSGGGGSGGGGSEIVLTQSPVTLSVSPGERATLSCRASQGVTSNLAWYQQKPGQAPRLLIYGASTRATGVPARFSGSGSGTEFTLTISSLQSEDFAVYYCQHRGTFGQGTKVDIK

Biological target: human CD47 (human, UniProt Q08722 19-323)
Assay: cell-based or functional assay

Row | Binder | tumor killing activity on NCI-H292 cells with T cells (luciferase), compared with clone No. 100 [fold] | tumor killing activity on NCI-H292 cells with T cells (luciferase), compared with the T cell control group [fold] | tumor killing activity on NCI-H292 cells with T cells (luciferase), compared with the positive control antibody (B6H12-αCD3-BITE) [fold] | tumor killing activity on SK-OV3 cells with T cells (luciferase), compared with clone No. 100 [fold] | tumor killing activity on SK-OV3 cells with T cells (luciferase), compared with the T cell control group [fold] | tumor killing activity on SK-OV3 cells with T cells (luciferase), compared with the positive control antibody (B6H12-αCD3-BITE) [fold]
1 | B1 | 1.2 | 4 | 1.2 |  |  | 
2 | B2 |  |  |  | 2 | 3.5 | 1.5
